From patent US20260167699A1 (Chugai, published 2026)

T1: FcγRIIa(R) extracellular domain, C-terminal His tag (human, UniProt P12318 34-217)
T1 construct: extracellular domain; Allotype R131; also called 2aR
T1 sequence: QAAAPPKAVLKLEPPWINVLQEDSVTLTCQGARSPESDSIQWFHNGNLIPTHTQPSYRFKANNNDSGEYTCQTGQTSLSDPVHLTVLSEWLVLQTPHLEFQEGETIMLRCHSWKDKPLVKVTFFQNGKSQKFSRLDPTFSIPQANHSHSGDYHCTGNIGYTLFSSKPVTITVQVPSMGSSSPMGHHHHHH

T2: FcγRIIa(H) extracellular domain, C-terminal His tag (human, UniProt P12318 34-217)
T2 construct: extracellular domain; Allotype H131; also called 2aH
T2 sequence: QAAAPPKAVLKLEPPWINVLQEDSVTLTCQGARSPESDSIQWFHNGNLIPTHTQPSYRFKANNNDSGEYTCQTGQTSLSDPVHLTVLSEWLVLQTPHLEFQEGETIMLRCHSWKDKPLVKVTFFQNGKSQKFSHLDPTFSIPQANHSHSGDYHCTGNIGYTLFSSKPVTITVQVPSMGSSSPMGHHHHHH

T3: FcγRIIb extracellular domain, C-terminal His tag (human, UniProt P31994 43-217)
T3 construct: extracellular domain; also called 2b
T3 sequence: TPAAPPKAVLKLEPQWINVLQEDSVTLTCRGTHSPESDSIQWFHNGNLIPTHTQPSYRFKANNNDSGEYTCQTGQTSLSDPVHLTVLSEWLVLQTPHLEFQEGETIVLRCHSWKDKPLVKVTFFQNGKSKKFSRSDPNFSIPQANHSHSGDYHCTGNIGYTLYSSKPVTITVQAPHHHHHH


What was measured:
Assay in all cases: SPR (Biacore); binding relative to GpH7-A5/GpH7-B3/GpL16-k0 x100;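 also: antibodies captured on a chip surface, soluble FcγR flowed over in HBS-EP+ running buffer at 25 °C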
[1] = biological target: T4, FcγRIa extracellular domain, C-terminal His tag (human, UniProt P12314 16-292)
T4 construct: extracellular domain; also called 1a
T4 sequence (P12314 other isoform, or with tags, fused parts or gaps): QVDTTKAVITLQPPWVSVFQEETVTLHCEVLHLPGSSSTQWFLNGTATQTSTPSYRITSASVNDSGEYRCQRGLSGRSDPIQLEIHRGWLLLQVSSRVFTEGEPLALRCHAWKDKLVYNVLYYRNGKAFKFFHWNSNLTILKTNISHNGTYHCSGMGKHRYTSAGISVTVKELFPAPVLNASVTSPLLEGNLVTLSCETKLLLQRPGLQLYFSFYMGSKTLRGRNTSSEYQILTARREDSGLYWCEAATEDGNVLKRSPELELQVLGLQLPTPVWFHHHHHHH

[2] = biological target: T1, FcγRIIa(R) extracellular domain, …
[3] = biological target: T2, FcγRIIa(H) extracellular domain, …
[4] = biological target: T3, FcγRIIb extracellular domain, …
[5] = biological target: T5, FcγRIIIa extracellular domain, C-terminal His tag (human, UniProt P08637 17-208)
T5 construct: extracellular domain; also called 3a
T5 sequence (P08637 other isoform, or with tags, fused parts or gaps): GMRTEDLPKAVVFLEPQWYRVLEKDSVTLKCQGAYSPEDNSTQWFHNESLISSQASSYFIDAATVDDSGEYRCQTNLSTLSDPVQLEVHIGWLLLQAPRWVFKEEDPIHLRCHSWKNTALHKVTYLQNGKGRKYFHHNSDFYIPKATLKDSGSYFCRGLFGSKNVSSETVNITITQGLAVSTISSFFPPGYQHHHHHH

| Binder | He/Con 1a [1] [%] | He/Con 2aR [2] [%] | He/Con 2aH [3] [%] | He/Con 2b [4] [%] | He/Con 3a [5] [%] |
| --- | --- | --- | --- | --- | --- |
| GpH7-A5/GpH7-B3 variant A327_19Q/GpL16-k0 (antibody, human IgG1, kappa, He Ab: anti-glypican 3 IgG1 heterodimer, only the GpH7-B3 chain mutated; position in EU numbering; also called He Ab) heavy 1: not shown heavy 2: not shown light: DIVMTQSPLSLPVTPGEPASISCQASESLVHSNRNTYLHWYLQKPGQSPQLLIYKVSNRFSGVPDRFSGSGSGTDFTLKISRVEAEDVGVYYCSQNTHVPPTFGQGTKVEIERTVAAPSVFIFPPSDEQLKSGTASVVCLLNNFYPREAKVQWKVDNALQSGNSQESVTEQDSKDSTYSLSSTLTLSKADYEKHKVYACEVTHQGLSSPVTKSFNRGEC | 98.5 | 77.7 | 79.6 | 67.5 | 54 |
| GpH7-A5/GpH7-B3 variant A330_03V/GpL16-k0 (antibody, human IgG1, kappa, He Ab: anti-glypican 3 IgG1 heterodimer, only the GpH7-B3 chain mutated; position in EU numbering; also called He Ab) heavy 1: not shown heavy 2: not shown light: DIVMTQSPLSLPVTPGEPASISCQASESLVHSNRNTYLHWYLQKPGQSPQLLIYKVSNRFSGVPDRFSGSGSGTDFTLKISRVEAEDVGVYYCSQNTHVPPTFGQGTKVEIERTVAAPSVFIFPPSDEQLKSGTASVVCLLNNFYPREAKVQWKVDNALQSGNSQESVTEQDSKDSTYSLSSTLTLSKADYEKHKVYACEVTHQGLSSPVTKSFNRGEC | 109 | 84 | 86.1 | 59.2 | 98.8 |
| GpH7-A5/GpH7-B3 variant A330_04F/GpL16-k0 (antibody, human IgG1, kappa, He Ab: anti-glypican 3 IgG1 heterodimer, only the GpH7-B3 chain mutated; position in EU numbering; also called He Ab) heavy 1: not shown heavy 2: not shown light: DIVMTQSPLSLPVTPGEPASISCQASESLVHSNRNTYLHWYLQKPGQSPQLLIYKVSNRFSGVPDRFSGSGSGTDFTLKISRVEAEDVGVYYCSQNTHVPPTFGQGTKVEIERTVAAPSVFIFPPSDEQLKSGTASVVCLLNNFYPREAKVQWKVDNALQSGNSQESVTEQDSKDSTYSLSSTLTLSKADYEKHKVYACEVTHQGLSSPVTKSFNRGEC | 110 | 112 | 104 | 105 | 144 |
| GpH7-A5/GpH7-B3 variant A330_15Y/GpL16-k0 (antibody, human IgG1, kappa, He Ab: anti-glypican 3 IgG1 heterodimer, only the GpH7-B3 chain mutated; position in EU numbering; also called He Ab) heavy 1: not shown heavy 2: not shown light: DIVMTQSPLSLPVTPGEPASISCQASESLVHSNRNTYLHWYLQKPGQSPQLLIYKVSNRFSGVPDRFSGSGSGTDFTLKISRVEAEDVGVYYCSQNTHVPPTFGQGTKVEIERTVAAPSVFIFPPSDEQLKSGTASVVCLLNNFYPREAKVQWKVDNALQSGNSQESVTEQDSKDSTYSLSSTLTLSKADYEKHKVYACEVTHQGLSSPVTKSFNRGEC | 108 | 114 | 106 | 107 | 122 |
| GpH7-A5/GpH7-B3 variant A330_10E/GpL16-k0 (antibody, human IgG1, kappa, He Ab: anti-glypican 3 IgG1 heterodimer, only the GpH7-B3 chain mutated; position in EU numbering; also called He Ab) heavy 1: not shown heavy 2: not shown light: DIVMTQSPLSLPVTPGEPASISCQASESLVHSNRNTYLHWYLQKPGQSPQLLIYKVSNRFSGVPDRFSGSGSGTDFTLKISRVEAEDVGVYYCSQNTHVPPTFGQGTKVEIERTVAAPSVFIFPPSDEQLKSGTASVVCLLNNFYPREAKVQWKVDNALQSGNSQESVTEQDSKDSTYSLSSTLTLSKADYEKHKVYACEVTHQGLSSPVTKSFNRGEC | 111 | 97.2 | 87.7 | 79.2 | 82.8 |
| GpH7-A5/GpH7-B3 variant A330_14T/GpL16-k0 (antibody, human IgG1, kappa, He Ab: anti-glypican 3 IgG1 heterodimer, only the GpH7-B3 chain mutated; position in EU numbering; also called He Ab) heavy 1: not shown heavy 2: not shown light: DIVMTQSPLSLPVTPGEPASISCQASESLVHSNRNTYLHWYLQKPGQSPQLLIYKVSNRFSGVPDRFSGSGSGTDFTLKISRVEAEDVGVYYCSQNTHVPPTFGQGTKVEIERTVAAPSVFIFPPSDEQLKSGTASVVCLLNNFYPREAKVQWKVDNALQSGNSQESVTEQDSKDSTYSLSSTLTLSKADYEKHKVYACEVTHQGLSSPVTKSFNRGEC | 108 | 107 | 102 | 87.9 | 85.8 |
| GpH7-A5/GpH7-B3 variant A330_16H/GpL16-k0 (antibody, human IgG1, kappa, He Ab: anti-glypican 3 IgG1 heterodimer, only the GpH7-B3 chain mutated; position in EU numbering; also called He Ab) heavy 1: not shown heavy 2: not shown light: DIVMTQSPLSLPVTPGEPASISCQASESLVHSNRNTYLHWYLQKPGQSPQLLIYKVSNRFSGVPDRFSGSGSGTDFTLKISRVEAEDVGVYYCSQNTHVPPTFGQGTKVEIERTVAAPSVFIFPPSDEQLKSGTASVVCLLNNFYPREAKVQWKVDNALQSGNSQESVTEQDSKDSTYSLSSTLTLSKADYEKHKVYACEVTHQGLSSPVTKSFNRGEC | 109 | 111 | 110 | 99 | 102 |
| GpH7-A5/GpH7-B3 variant A330_11K/GpL16-k0 (antibody, human IgG1, kappa, He Ab: anti-glypican 3 IgG1 heterodimer, only the GpH7-B3 chain mutated; position in EU numbering; also called He Ab) heavy 1: not shown heavy 2: not shown light: DIVMTQSPLSLPVTPGEPASISCQASESLVHSNRNTYLHWYLQKPGQSPQLLIYKVSNRFSGVPDRFSGSGSGTDFTLKISRVEAEDVGVYYCSQNTHVPPTFGQGTKVEIERTVAAPSVFIFPPSDEQLKSGTASVVCLLNNFYPREAKVQWKVDNALQSGNSQESVTEQDSKDSTYSLSSTLTLSKADYEKHKVYACEVTHQGLSSPVTKSFNRGEC | 107 | 124 | 118 | 107 | 91.8 |
| GpH7-A5/GpH7-B3 variant A330_01G/GpL16-k0 (antibody, human IgG1, kappa, He Ab: anti-glypican 3 IgG1 heterodimer, only the GpH7-B3 chain mutated; position in EU numbering; also called He Ab) heavy 1: not shown heavy 2: not shown light: DIVMTQSPLSLPVTPGEPASISCQASESLVHSNRNTYLHWYLQKPGQSPQLLIYKVSNRFSGVPDRFSGSGSGTDFTLKISRVEAEDVGVYYCSQNTHVPPTFGQGTKVEIERTVAAPSVFIFPPSDEQLKSGTASVVCLLNNFYPREAKVQWKVDNALQSGNSQESVTEQDSKDSTYSLSSTLTLSKADYEKHKVYACEVTHQGLSSPVTKSFNRGEC | 109 | 122 | 107 | 117 | 87.3 |

Now from value to binder:

| He/Con 1a [1] [%] | He/Con 2aR [2] [%] | He/Con 2aH [3] [%] | He/Con 2b [4] [%] | He/Con 3a [5] [%] | Binder |
| --- | --- | --- | --- | --- | --- |
| 100 | 95.9 | 76.6 | 98.2 | 52.6 | GpH7-A5/GpH7-B3 variant A327_20W/GpL16-k0 (antibody, human IgG1, kappa, He Ab: anti-glypican 3 IgG1 heterodimer, only the GpH7-B3 chain mutated; position in EU numbering; also called He Ab) heavy 1: not shown heavy 2: not shown light: DIVMTQSPLSLPVTPGEPASISCQASESLVHSNRNTYLHWYLQKPGQSPQLLIYKVSNRFSGVPDRFSGSGSGTDFTLKISRVEAEDVGVYYCSQNTHVPPTFGQGTKVEIERTVAAPSVFIFPPSDEQLKSGTASVVCLLNNFYPREAKVQWKVDNALQSGNSQESVTEQDSKDSTYSLSSTLTLSKADYEKHKVYACEVTHQGLSSPVTKSFNRGEC |
| 108 | 107 | 101 | 90.9 | 139 | GpH7-A5/GpH7-B3 variant A330_06M/GpL16-k0 (antibody, human IgG1, kappa, He Ab: anti-glypican 3 IgG1 heterodimer, only the GpH7-B3 chain mutated; position in EU numbering; also called He Ab) heavy 1: not shown heavy 2: not shown light: DIVMTQSPLSLPVTPGEPASISCQASESLVHSNRNTYLHWYLQKPGQSPQLLIYKVSNRFSGVPDRFSGSGSGTDFTLKISRVEAEDVGVYYCSQNTHVPPTFGQGTKVEIERTVAAPSVFIFPPSDEQLKSGTASVVCLLNNFYPREAKVQWKVDNALQSGNSQESVTEQDSKDSTYSLSSTLTLSKADYEKHKVYACEVTHQGLSSPVTKSFNRGEC |
| 112 | 79.5 | 67.8 | 62.8 | 56.4 | GpH7-A5/GpH7-B3 variant A330_09D/GpL16-k0 (antibody, human IgG1, kappa, He Ab: anti-glypican 3 IgG1 heterodimer, only the GpH7-B3 chain mutated; position in EU numbering; also called He Ab) heavy 1: not shown heavy 2: not shown light: DIVMTQSPLSLPVTPGEPASISCQASESLVHSNRNTYLHWYLQKPGQSPQLLIYKVSNRFSGVPDRFSGSGSGTDFTLKISRVEAEDVGVYYCSQNTHVPPTFGQGTKVEIERTVAAPSVFIFPPSDEQLKSGTASVVCLLNNFYPREAKVQWKVDNALQSGNSQESVTEQDSKDSTYSLSSTLTLSKADYEKHKVYACEVTHQGLSSPVTKSFNRGEC |
| 109 | 96 | 94.4 | 75.8 | 101 | GpH7-A5/GpH7-B3 variant A330_07I/GpL16-k0 (antibody, human IgG1, kappa, He Ab: anti-glypican 3 IgG1 heterodimer, only the GpH7-B3 chain mutated; position in EU numbering; also called He Ab) heavy 1: not shown heavy 2: not shown light: DIVMTQSPLSLPVTPGEPASISCQASESLVHSNRNTYLHWYLQKPGQSPQLLIYKVSNRFSGVPDRFSGSGSGTDFTLKISRVEAEDVGVYYCSQNTHVPPTFGQGTKVEIERTVAAPSVFIFPPSDEQLKSGTASVVCLLNNFYPREAKVQWKVDNALQSGNSQESVTEQDSKDSTYSLSSTLTLSKADYEKHKVYACEVTHQGLSSPVTKSFNRGEC |
| 110 | 99.7 | 94.7 | 79.6 | 122 | GpH7-A5/GpH7-B3 variant A330_08L/GpL16-k0 (antibody, human IgG1, kappa, He Ab: anti-glypican 3 IgG1 heterodimer, only the GpH7-B3 chain mutated; position in EU numbering; also called He Ab) heavy 1: not shown heavy 2: not shown light: DIVMTQSPLSLPVTPGEPASISCQASESLVHSNRNTYLHWYLQKPGQSPQLLIYKVSNRFSGVPDRFSGSGSGTDFTLKISRVEAEDVGVYYCSQNTHVPPTFGQGTKVEIERTVAAPSVFIFPPSDEQLKSGTASVVCLLNNFYPREAKVQWKVDNALQSGNSQESVTEQDSKDSTYSLSSTLTLSKADYEKHKVYACEVTHQGLSSPVTKSFNRGEC |
| 103 | 116 | 116 | 95.8 | 77.3 | GpH7-A5/GpH7-B3 variant A330_12R/GpL16-k0 (antibody, human IgG1, kappa, He Ab: anti-glypican 3 IgG1 heterodimer, only the GpH7-B3 chain mutated; position in EU numbering; also called He Ab) heavy 1: not shown heavy 2: not shown light: DIVMTQSPLSLPVTPGEPASISCQASESLVHSNRNTYLHWYLQKPGQSPQLLIYKVSNRFSGVPDRFSGSGSGTDFTLKISRVEAEDVGVYYCSQNTHVPPTFGQGTKVEIERTVAAPSVFIFPPSDEQLKSGTASVVCLLNNFYPREAKVQWKVDNALQSGNSQESVTEQDSKDSTYSLSSTLTLSKADYEKHKVYACEVTHQGLSSPVTKSFNRGEC |
